From publication PMC8539922, “Reconstitution of Caveolin-1 into Artificial Lipid Membrane: Characterization by Transmission Electron Microscopy and Solid-State Nuclear Magnetic Resonance” (Molecules, 2021)
Where no end group is shown, it is not given here.

Target: the molecule itself
Assay: negative-stain TEM + thioflavin-T fluorescence; peptide dissolved in DMSO, diluted to 1 mg/mL in 20 mM Tris, pH 8.0, incubated at 37 °C for 48 h

B1: CAV1(168-178) peptide (peptide)
peptide: SNVRINLQKEI
modifications: not fully specified
notes: Caveolin-1, residues 168-178 of the α-isoform; The ends of the two caps as printed seem swapped (a rink amide resin gives a C-terminal amide; acetyl is usually N-terminal); also called CAV1 C-terminal peptide; CAV1 C-terminus; source: synthetic peptide (Fmoc solid phase, HPLC purified)
  binding result: binds
